Values quoted from earlier work as cited in patent US20040253224A1, “Mammalian mucinase, its recombinant production, and its use in therapy or prophylaxis against diseases in which mucus is involved or infectious diseases” (priority 2001, published 2004).

Key:
[1] = in vitro
[2] = aerosolized, Phase 3, cystic fibrosis patients

B1: recombinant human DNase I: recombinant human deoxyribonuclease I, an enzyme that selectively cleaves DNA (Pulmozyme, Genentech) (protein, UniProt P24855 23-282, looked up)
Deoxyribonuclease-1: LKIAAFNIQTFGETKMSNATLVSYIVQILSRYDIALVQEVRDSHLTAVGKLLDNLNQDAPDTYHYVVSEPLGRNSYKERYLFVYRPDQVSAVDSYYYDDGCEPCGNDTFNREPAIVRFFSRFTEVREFAIVPLHAAPGDAVAEIDALYDVYLDVQEKWGLEDVMLMGDFNAGCSYVRPSQWSSIRLWTSPTFQWLIPDSADTTATPTHCAYDRIVVAGMLLRGAVVPDSALPFNFQAAYGLSDQLAQAISDHYPVEVMLK
- mucociliary transportability of CF sputum [1]: increased
- viscosity and adhesiveness of purulent CF sputum [1]: decrease
- improvement in FEV1 [2]: 5.6-5.8%
- reduction in respiratory exacerbations [2]: 28-37%
